According to paper PMC10501185:

Biological target: Lymphocytic choriomeningitis virus RING finger Z matrix protein (Lymphocytic choriomeningitis virus (LCMV)) (UniProt P18541)
Experiment: cryo-EM structure

UniProt P18541, sequence (P18541 whole entry): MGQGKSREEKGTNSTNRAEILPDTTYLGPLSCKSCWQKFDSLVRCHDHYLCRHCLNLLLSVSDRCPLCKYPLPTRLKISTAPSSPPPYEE

## Lymphocytic choriomeningitis virus large polymerase (L), P14240 1-2210
  stoichiometry N: 1
